Entries after “also recorded” stand apart in the source; their conditions may differ.
Tests used:
Type in all cases: cell-based
MNC [1] = experiment: MSC production by the kind of TGFβ receptor inhibitor (Example 4); details: 10 μM SB431542, 0.5 μM A-83-01 or 0.5 μM LDN-193189 in medium for seeding; Vitronectin (20-398 aa) coating; day 12 (FIG. 7)
Procedure: MNC (Lonza) was thawed using the following medium for seeding (1), (2) or (3). The above-mentioned cells were seeded at a concentration of 2.6×10^6 cells/well in a 24-well plate coated with Vitronectin (20-398 aa) (wako) at a concentration of 1.5 μg/cm^2, and cultured under the conditions of 37° C., 5% CO2. The next day of seeding, the entire amount of the medium in the plate was replaced with a medium for seeding (1), (2) or (3), and the medium for seeding (1), (2) or (3) in an amount corresponding to 20% of the amount of the medium in the plate was further added on day 3 and day 5 after seeding. Medium for seeding (1): StemFit (registered trade mark) AKO3N medium (Ajinomoto Co., Inc.) SOLUTION A, ¼ StemFit (registered trade mark) AKO3N medium (Ajinomoto Co., Inc.) SOLUTION B, 3 ng/mL bFGF (peprotech), 10 μM SB431542 (Stemgent), 1/100 Lipid Concentrate (Life Technologies), 10 nM Dexamethasone (Sigma-Aldrich), 10 ng/mL PDGF-BB (FUJIFILM Wako Pure Chemical Industries, Ltd.), 1 mM Lithium Chloride (Sigma-Aldrich)
(§1) Medium for seeding (2): StemFit (registered trade mark) AKO3N medium (Ajinomoto Co., Inc.) SOLUTION A, ¼ StemFit (registered trade mark) AKO3N medium (Ajinomoto Co., Inc.) SOLUTION B, 3 ng/mL bFGF (peprotech), 0.5 μM A-83-01 (wako), 1/100 Lipid Concentrate (Life Technologies), 10 nM Dexamethasone (Sigma-Aldrich), 10 ng/mL PDGF-BB (FUJIFILM Wako Pure Chemical Industries, Ltd.), 1 mM Lithium Chloride (Sigma-Aldrich)
as §1, with “for seeding (3): StemFit (registered” for “for seeding (2): StemFit (registered”, “0.5 μM LDN-193189 (Stemgent), 1/100 Lipid” for “0.5 μM A-83-01 (wako), 1/100 Lipid”, “Chloride (Sigma-Aldrich) […]” for “Chloride (Sigma-Aldrich)”
After confirming that the cells became sub-confluent, the cells were passaged on day 12 after seeding, and the number of cells was measured.

MNC [2] = experiment: MSC production from MNC by the kind of Vitronectin (Example 2); details: coating 1.5 μg/cm^2, 2.6×10^6 cells/well, 13 days after MNC seeding (FIG. 4)
Procedure: MNC (Lonza) was thawed using the following medium for seeding (serum-free). The above-mentioned cells were seeded at a concentration of 2.6×10^6 cells/well in 24-well plates coated with Vitronectin (20-398 aa) (wako) (corresponding to amino acid Nos. 1-379 of SEQ ID NO: 1), Vitronectin (VTN-N, 62-478 aa) (Life Technologies) (corresponding to amino acid Nos. 43-459 of SEQ ID NO: 1) or Vitronectin (Full length, 20-478 aa) (Sigma) (corresponding to SEQ ID NO: 1) at a concentration of 1.5 μg/cm^2, and cultured under the conditions of 37° C., 5% CO2. In addition, the cells were seeded at a concentration of 1.6×10^6 cells/well in a 24-well plate coated with Vitronectin (20-398 aa) (wako) or Synthemax II (CORNING) at concentrations of 1.5 μg/cm^2 and 5.0 μg/cm^2, respectively, and cultured under the conditions of 37° C., 5% CO2. Synthemax II is a vitronectin-based synthetic peptide containing RGD motif and flanking sequence. The next day of seeding, the entire amount of the medium in the plate was replaced with a medium for seeding, and the medium for seeding in an amount corresponding to 20% of the amount of the medium in the plate was further added on day 3 and day 5 after seeding. […]
After confirming that the cells became sub-confluent, the cells were passaged on days 12 and 13 after seeding, and the number of cells was measured.

[3] = test system: bone marrow mononuclear cells (MNC); experiment: Formation of MSC cell aggregates from MNC seeded on coated plates in serum-free medium (Example 1); details: plate coated at 1.5 μg/cm^2 at MNC seeding, day 5 after seeding, compared with Fibronectin coating
Procedure: (§2) Due to the limitations of purification techniques, bone marrow mononuclear cells (MNC) separated from bone marrow are slightly contained with mesenchymal stem cells (MSC). In this Example, a method for producing MSC from MNC by using a serum-free medium is verified. Bone marrow mononuclear cells (MNC) (Lonza) were thawed using the following medium for seeding. The above-mentioned cells were seeded at a concentration of 2.6×10^6 cells/well in a 24-well plate coated with Fibronectin (Sigma) or Vitronectin (wako) each at a concentration of 1.5 μg/cm^2, and cultured under the conditions of 37° C., 5% CO2. The next day of seeding, the entire amount of the medium in the plate was replaced with a medium for seeding, and the medium for seeding in an amount corresponding to 20% of the amount of the medium in the plate was further added on day 3 and day 5 after seeding. Medium for seeding: StemFit (registered trade mark) AKO3N medium (Ajinomoto Co., Inc.) SOLUTION A, StemFit (registered trade mark) AKO3N medium (Ajinomoto Co., Inc.) SOLUTION B, 3 ng/mL bFGF (peprotech), 10 μM 5B431542 (Stemgent), 1/100 Lipid Concentrate (Life Technologies), 10 nM Dexamethasone (Sigma-Aldrich), 10 ng/mL PDGF-BB (FUJIFILM Wako Pure Chemical Industries, Ltd.), 1 mM Lithium Chloride (Sigma-Aldrich)

[4] = test system: bone marrow mononuclear cells (MNC); experiment: Number of cells after re-seeding of dissociated aggregates (Example 1); details: coating at MNC seeding 1.5 μg/cm^2, aggregates re-seeded day 7, counted day 13, compared with Fibronectin coating
Procedure: as §2, with “Medium for seeding: StemFit (registered trade mark) AKO3N medium (Ajinomoto Co., Inc.) SOLUTION A, StemFit (registered trade mark) AKO3N medium (Ajinomoto Co., Inc.) SOLUTION B, 3 ng/mL bFGF (peprotech), 10 μM 5B431542 (Stemgent), 1/100 Lipid Concentrate (Life Technologies), 10 nM Dexamethasone (Sigma-Aldrich), 10 ng/mL PDGF-BB (FUJIFILM Wako Pure Chemical Industries, Ltd.), 1 mM Lithium Chloride (Sigma-Aldrich)” left out
After confirming that the cells became sub-confluent, the cells were passaged on day 13 after seeding, and the number of cells was measured.

Molecule: Cc1cccc(-c2nn(C(=S)Nc3ccccc3)cc2-c2ccnc3ccccc23)n1 [A-83-01]
- MSC production from MNC (number of MSC) (MNC [1]): MSC could be efficiently produced from MNC

Molecule: c1ccc2c(-c3cnn4cc(-c5ccc(N6CCNCC6)cc5)cnc34)ccnc2c1 [LDN-193189]
- MSC production from MNC (number of MSC) (MNC [1]): MSC could be efficiently produced from MNC

Molecule: NC(=O)c1ccc(-c2nc(-c3ccc4c(c3)OCO4)c(-c3ccccn3)[nH]2)cc1 [SB431542]
- MSC production from MNC (number of MSC) (MNC [1]): MSC could be efficiently produced from MNC

B1: Vitronectin (20-398 aa) (wako): commercially available partial peptide of vitronectin, corresponding to amino acid Nos. 1-379 of SEQ ID NO: 1 (protein, listed as Homo sapiens)
chain: DQESCKGRCTEGFNVDKKCQCDELCSYYQSCCTDYTAECKPQVTRGDVFTMPEDEYTVYDDGEEKNNATVHEQVGGPSLTSDLQAQSKGNPEQTPVLKPEEEAPAPEVGASKPEGIDSRPETLHPGRPQPPAEEELCSGKPFDAFTDLKNGSLFAFRGQYCYELDEKAVRPGYPKLIRDVWGIEGPIDAAFTRINCQGKTYLFKGSQYWRFEDGVLDPDYPRNISDGFDGIPDNVDAALALPAHSYSGRERVYFFKGKQYWEYQFQHQPSQEECEGSSLSAVFEHFAMMQRDSWEDIFELLFWGRTSAGTRQPQFISRDWHGVPGQVDAAMAGRIYISGMAPRPSLAKKQRFRHRNRKGYRSQRGHSRGRNQNSRRPSR
- MSC production from MNC (number of MSC) (MNC [2]): could produce MSC most efficiently from MNC

B2: Vitronectin: Vitronectin (wako) used to coat 24-well plates at 1.5 μg/cm^2 in Example 1 (protein, UniProt P04004 20-478, looked up)
Vitronectin: DQESCKGRCTEGFNVDKKCQCDELCSYYQSCCTDYTAECKPQVTRGDVFTMPEDEYTVYDDGEEKNNATVHEQVGGPSLTSDLQAQSKGNPEQTPVLKPEEEAPAPEVGASKPEGIDSRPETLHPGRPQPPAEEELCSGKPFDAFTDLKNGSLFAFRGQYCYELDEKAVRPGYPKLIRDVWGIEGPIDAAFTRINCQGKTYLFKGSQYWRFEDGVLDPDYPRNISDGFDGIPDNVDAALALPAHSYSGRERVYFFKGKQYWEYQFQHQPSQEECEGSSLSAVFEHFAMMQRDSWEDIFELLFWGRTSAGTRQPQFISRDWHGVPGQVDAAMAGRIYISGMAPRPSLAKKQRFRHRNRKGYRSQRGHSRGRNQNSRRPSRATWLSLFSSEESNLGANNYDDYRMDWLVPATCEPIQSVFFFSGDKYYRVNLRTRRVDTVDPPYPRSIAQYWLGCPAPGHL
- number of cell aggregates obtained [3]: More cell aggregates were formed; also recorded: larger
- number of cells obtained by the subsequent re-seeding [4]: larger
- number of cells obtained by the subsequent re-seeding ([4]; listed as vitronectin): remarkably higher
